# Results: US7541183B2, “Growth and differentiation of adult muscle stem cells with activators or inhibitors of Wnt signaling” (Ottawa Health Research Institute, priority 2003, dated 2009)
# Tests used:
# CD45+:Sca1+ muscle cells = format: cell-based
# Protocol: Mononuclear cells were washed twice with DMEM supplemented with 5% FBS, and suspended at a concentration of 2−3×10^6 cells/ml. […] Primary antibodies were diluted at 1:200, and Streptavidin Tri-Color Conjugate was diluted 1:1000. After two washes with DMEM at 4° C., cells were separated on a MoFlo cytometer (DakoCytomation), equipped with 3 lasers. Sort gates were strictly defined based on isotype control stained cells and single antibody staining. Dead cells and debris were excluded by gating on forward and side scatter profiles. Sorting was performed using single cell mode to achieve the highest possible purity. The purity of sorted populations was routinely >98%.
# Primary myoblasts were isolated from hind limb muscle of 3-week old Balb/c mice, and maintained in HAM's F-10 medium (Invitrogen) supplemented with 20% FBS, and 2.5 ng/ml bFGF (Invitrogen).
# For co-culture experiments, primary myoblasts or Wnt-expressing cells were mixed with purified CD45^+:Sca1^+ cells at a ratio of 1:1, and seeded on Collagen-coated 2-well Permanox Chamber Slides (Lab-Tek). The density was 2×10^4 cells/chamber for co-culture in growth conditions, and 4×10^4 cells/chamber for differentiation experiments. […] Fluoroscein or Rhodamine conjugated antibodies (Chemicon) were used for secondary detection. Cover slides were mounted and analyzed using a Zeiss Axioscop fluorescent microscope.
# [1] = test system: Myf5nLacZ+ satellite cells; test: Impact of cardiotoxin injection on myogenic progenitors in injured muscle; format: in vivo, Myf5nLacZ mice; details: 18 hours post-ctx injection
# Protocol: For direct analysis of sorted cell populations, cells were washed and suspended in phosphate-buffered saline (PBS), and cytospun onto silanized slides (DAKO). X-gal staining was performed as described previously (Kablar, 1997, Development 124, 4729-4738).
# 5 to 8 week-old mice were anaesthetised with Halothane gas. 25 μl of 10 μM cardiotoxin (Latoxan) was injected directly into the TA muscle, using a 29 G 1/2 insulin syringe. For cell proliferation assays, 0.3 mg/kg of 5-bromo-deoxyuridine (BrdU, Sigma) was injected intraperitoneally 90 minutes prior to sacrificing animals. Cells that had incorporated BrdU were detected by flow cytometry using a FITC conjugated anti-BrdU antibody (ED Pharmingen). For sFRP experiments, 100 ng of recombinant sFRP 2 and 3 (R&D Systems) were injected into regenerating TA muscle. Control animals received injections of equal volumes of PBS. For analysis of total TA cell populations, 1×10^4 mononuclear cells were plated on collagen-coated chamber slides overnight and then stained with anti-Desmin antibody (DAKO) at 1:200. Donkey anti-mouse FITC (Chemicon) at 1:500 was used for secondary detection.
Substance,increase in CD45+:Sca1+ cell survival (CD45+:Sca1+ muscle cells; 100 ng/ml Shh),"myogenic differentiation efficiency of CD45+:Sca1+ cells (CD45+:Sca1+ muscle cells; recombinant Shh at 10 or 100 ng/ml, cells alone or in co-culture with myoblasts)",reduction in the number of Myf5nLacZ+ cells relative to uninjured muscle [1] [fold],reduction in the number of Myf5nLacZ+ cells relative to uninjured muscle ([1]; listed as ctx),number of Myf5nLacZ+ cells ([1]; uninjured muscle 4.1×10^4±1.6×10^4)
"Shh: recombinant Sonic Hedgehog (Shh-N, R&D Systems)",3-4 fold,did not influence,–,–,–
cardiotoxin,–,–,~30,approximately 30 fold,1.18×10^3±1×10^3 cells/g tissue
